Laboratory results reported in publication PMC4167861, “Mycobacterium tuberculosis Rho Is an NTPase with Distinct Kinetic Properties and a Novel RNA-Binding Subdomain” (PLoS ONE, 2014).

Target: the molecule itself
Assay: cross-linking; 2 ug MtbRho, 0.05% glutaraldehyde, 5 and 10 min at 37 C in T-buffer (KCl instead of K-glutamate), no RNA or ATP; 3.5-8% gradient SDS-PAGE; cross-linked RNAP as marker of ~400 kDa

B1: Mycobacterium tuberculosis Rho (enzyme)
chain: MTDTDLITAGESTDGKPSDAAATDPPDLNADEPAGSLATMVLPELRALANRAGVKGTSGMRKNELIAAIEEIRRQANGAPAVDRSAQEHDKGDRPPSSEAPATQGEQTPTEQIDSQSQQVRPERRSATREAGPSGSGERAGTAADDTDNRQGGQQDAKTEERGTDAGGDQGGDQQASGGQQARGDEDGEARQGRRGRRFRDRRRRGERSGDGAEAELREDDVVQPVAGILDVLDNYAFVRTSGYLPGPHDVYVSMNMVRKNGMRRGDAVTGAVRVPKEGEQPNQRQKFNPLVRLDSINGGSVEDAKKRPEFGKLTPLYPNQRLRLETSTERLTTRVIDLIMPIGKGQRALIVSPPKAGKTTILQDIANAITRNNPECHLMVVLVDERPEEVTDMQRSVKGEVIASTFDRPPSDHTSVAELAIERAKRLVEQGKDVVVLLDSITRLGRAYNNASPASGRILSGGVDSTALYPPKRFLGAARNIEEGGSLTIIATAMVETGSTGDTVIFEEFKGTGNAELKLDRKIAERRVFPAVDVNPSGTRKDELLLSPDEFAIVHKLRRVLSGLDSHQAIDLLMSQLRKTKNNYEFLVQVSKTTPGSMDSD
notes: also called MtbRho; recombinant MtbRho
stoichiometry N: 6
